From IntAct's records for PubMed 22327218

What follows are substances tested against anm5_human PRMT5 (UniProt O14744).
Sequence of anm5_human PRMT5 (O14744 whole entry): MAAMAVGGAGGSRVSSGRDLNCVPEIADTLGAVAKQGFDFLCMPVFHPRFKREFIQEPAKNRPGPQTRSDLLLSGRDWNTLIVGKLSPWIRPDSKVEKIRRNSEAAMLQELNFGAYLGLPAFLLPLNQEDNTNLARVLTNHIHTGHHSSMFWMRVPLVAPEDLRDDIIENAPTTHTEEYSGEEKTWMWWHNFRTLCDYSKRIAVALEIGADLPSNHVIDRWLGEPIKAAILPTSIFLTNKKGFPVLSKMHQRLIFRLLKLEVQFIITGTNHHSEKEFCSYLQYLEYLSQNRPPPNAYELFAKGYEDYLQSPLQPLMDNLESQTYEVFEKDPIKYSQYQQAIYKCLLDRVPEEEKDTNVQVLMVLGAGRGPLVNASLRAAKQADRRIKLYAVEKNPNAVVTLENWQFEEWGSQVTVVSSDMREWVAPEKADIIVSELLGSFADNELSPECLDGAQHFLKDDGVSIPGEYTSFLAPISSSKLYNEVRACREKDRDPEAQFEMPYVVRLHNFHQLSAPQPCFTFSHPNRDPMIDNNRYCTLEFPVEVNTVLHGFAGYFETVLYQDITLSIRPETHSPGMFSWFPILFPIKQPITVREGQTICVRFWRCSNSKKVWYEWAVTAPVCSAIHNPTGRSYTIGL

Sequence of Transcription factor E2F1 (Homo sapiens), Q01094 R113K (Q01094 whole entry R113K): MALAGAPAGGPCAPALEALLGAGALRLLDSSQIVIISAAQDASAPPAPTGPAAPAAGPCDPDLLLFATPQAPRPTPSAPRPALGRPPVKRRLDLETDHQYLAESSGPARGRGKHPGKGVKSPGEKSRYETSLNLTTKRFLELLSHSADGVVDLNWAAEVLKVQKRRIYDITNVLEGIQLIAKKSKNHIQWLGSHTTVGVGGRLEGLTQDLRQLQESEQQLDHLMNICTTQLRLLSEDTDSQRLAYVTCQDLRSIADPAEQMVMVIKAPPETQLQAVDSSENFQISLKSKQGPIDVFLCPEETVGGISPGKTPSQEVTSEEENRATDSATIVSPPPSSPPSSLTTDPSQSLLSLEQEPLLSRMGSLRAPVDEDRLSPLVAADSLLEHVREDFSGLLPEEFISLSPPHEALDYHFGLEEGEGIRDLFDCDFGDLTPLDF
Sequence of Transcription factor E2F1 (Homo sapiens), Q01094 R111K (Q01094 whole entry R111K): as the sequence (Q01094 whole entry R113K) above, with R111K, K113R counted along it
Sequence of Transcription factor E2F1 (Homo sapiens), Q01094 R109K (Q01094 whole entry R109K): as the sequence (Q01094 whole entry R113K) above, with R109K, K113R counted along it

Effect of a mutation on the interaction, disrupting interaction:
Transcription factor E2F1 (Homo sapiens), Q01094 R109K
Transcription factor E2F1 (Homo sapiens), Q01094 R111K
Transcription factor E2F1 (Homo sapiens), Q01094 R113K
